Experiments:
[1] = biological target: PTH receptor (PTHR1 receptor) endogenously expressed by rat osteosarcoma UMR-106 cells (rat) (UniProt P25961); assay: cell-based or functional assay
[2] = biological target: T1, human RANKL (receptor activator of nuclear factor kappa-B ligand) (human, UniProt O14788 140-317, limits assumed); assay: cell-based or functional assay
T1 sequence (looked up): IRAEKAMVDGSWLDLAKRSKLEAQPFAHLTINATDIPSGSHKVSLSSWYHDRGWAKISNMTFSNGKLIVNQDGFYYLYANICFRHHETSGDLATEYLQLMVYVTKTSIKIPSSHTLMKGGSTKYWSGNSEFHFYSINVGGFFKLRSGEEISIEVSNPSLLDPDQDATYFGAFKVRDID

Chain of PTH receptor (PTHR1 receptor) endogenously expressed by rat osteosarcoma UMR-106 cells (rat) (P25961 27-591): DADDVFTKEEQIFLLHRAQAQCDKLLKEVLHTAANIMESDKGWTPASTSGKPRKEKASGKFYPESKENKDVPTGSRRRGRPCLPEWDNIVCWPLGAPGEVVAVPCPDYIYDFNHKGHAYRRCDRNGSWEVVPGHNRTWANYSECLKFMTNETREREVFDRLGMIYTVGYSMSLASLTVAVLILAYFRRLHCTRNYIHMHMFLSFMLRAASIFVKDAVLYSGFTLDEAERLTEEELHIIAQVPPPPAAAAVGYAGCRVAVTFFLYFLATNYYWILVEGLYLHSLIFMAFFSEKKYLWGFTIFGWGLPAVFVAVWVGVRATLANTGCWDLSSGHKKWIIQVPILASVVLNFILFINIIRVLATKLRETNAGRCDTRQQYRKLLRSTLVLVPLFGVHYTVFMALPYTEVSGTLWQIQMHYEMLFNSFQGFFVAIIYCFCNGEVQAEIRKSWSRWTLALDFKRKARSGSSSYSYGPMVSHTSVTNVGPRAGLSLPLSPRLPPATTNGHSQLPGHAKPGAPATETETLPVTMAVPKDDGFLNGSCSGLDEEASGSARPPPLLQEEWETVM

Question: How did the EC50 (nM); PTHR1 activation, CRE-regulated luciferase luminescence in UMR-106 cells [1] turn out when “PTH peptide (a 38 amino acid parathyroid hormone peptide)” was run?
Answer: 5.6 nM

B1: RANKL neutralizing antibody (an IgG4 RANKL mAb having the same HC and LC amino acid sequences as the mAb portion of the exemplified fusion compound) (antibody, V domains shown)
VH: QVQLVQSGAEVKKPGSSVKVSCKASGYAFTNYYIEWVRQAPGQGLEWMGVINPGWGDTNYNEKFKGRVTITADKSTSTAYMELSSLRSEDTAVYYCARRDTAHGYYALDPWGQGTTVTVSS
VL: DIQMTQSPSSLSASVGDRVTITCKASQNVGTNVAWYQQKPGKAPKLLIYSASYRYSGVPSRFSGSGSGTDFTLTISSLQPEDFATYYCQQYWDYPLTFGGGTKVEIKR
Question: With B1 as the molecule, how does the “IC50 (nM) hRANKL; neutralization of RANKL-induced NF-kB driven luciferase luminescence” value [2] read?
Answer: 0.069 nM

Reference: US20200354427A1 (Eli Lilly, published 2020)
